We go through 3 substances from US20160257710A1, “SELECTIVE INHIBITORS OF PROTEINASE 3” (INSERM (INSTITUT NATIONAL DE LA SANTÉ ET LA RECHERCHE …, priority 2013, published 2016).

Substitutions are numbered along the chain they refer to. Where no end group is shown, it is not given here. [ ]: non-standard residue; d: D form. The star is where a group is joined. EDDnp = O=[N+]([O-])c1ccc(NCCN*)c([N+](=O)[O-])c1; AlaP = not defined here

Data set [1] addresses T1, PR3K99L (Homo sapiens, UniProt P24158, K115L).
T1 construct: made in house; host or cells: Drosophila S2 cells
T1 sequence (P24158 28-248 K115L limits assumed): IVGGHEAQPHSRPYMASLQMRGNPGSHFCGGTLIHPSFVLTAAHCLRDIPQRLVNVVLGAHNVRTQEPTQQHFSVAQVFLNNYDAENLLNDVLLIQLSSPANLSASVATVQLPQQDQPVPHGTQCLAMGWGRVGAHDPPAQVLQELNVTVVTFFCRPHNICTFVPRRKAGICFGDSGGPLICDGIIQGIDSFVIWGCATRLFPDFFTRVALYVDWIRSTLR
In words: Hydrolysis of FRET substrates, specificity constant kcat/KM. The format is biochemical. On the procedure: (§1) Recombinant PR3K99L and […] were produced in Drosophila S2 cells using the calcium phosphate method, and stable cell lines were selected using puromycin. Proteins were purified by affinity chromatography on Chelating Sepharose and analyzed by SDS-PAGE. The total protein concentration was determined with a BCA Protein Assay
(§2) Another critical difference between the two proteases is the replacement of a charged arginyl residue at position 217 in HNE by an Ile in PR3 in the vicinity of the S4 subsite. We investigated the importance of the S4 subsite in PR3 by producing two recombinant PR3 molecules with a […] substitution at position 99 (PR3K99L) and an Ile for Arg substitution at position 217 (PR3I217R). Wild type and recombinant PR3 were then assayed with FRET substrates derived from the PR3/NE substrate Abz-QPMAVVQSVPQ-EDDnp, and bearing either a negatively charged residue (Abz-QDMAVVQSVPQ-EDDnp) or a positively charged residue (QKMAVVQSVPQ-EDDnp) at P4. Wild type and recombinant proteases all cleave the original substrate at the V—V bond with about the same kcat/Km (Table 2).

Data set [2] deals with T2, PR3I217R (Homo sapiens, UniProt P24158, I221R).
T2 construct: made in house; host or cells: Drosophila S2 cells
T2 sequence (P24158 28-248 I221R limits assumed): T1 sequence (P24158 28-248 K115L limits assumed) with L88K, I194R
The description is as above. Format: biochemical. On the procedure: as §1, §2

Data set [3] addresses T3, wtPR3 (Homo sapiens, UniProt P24158).
T3 sequence (P24158 28-248): T1 sequence (P24158 28-248 K115L limits assumed) with L88K
Described as above. Format: biochemical. The method, then: as §2
We observed that a large panel of amino acid residues could be accommodated at the PR3 P3 subsite using a series of FRET substrates but a Tyr was preferred at this position (Table 3).

Data set [4] addresses T4, PR3 (Homo sapiens, UniProt P24158).
T4 construct: in a lysate of purified human neutrophils; endogenous in cells; host or cells: purified human neutrophils (lysate)
T4 sequence (P24158 28-248): T1 sequence (P24158 28-248 K115L limits assumed) with L88K
Kind of data set: Inhibition of PR3 in a lysate of purified human neutrophils. The following applies: conditions as with purified proteases. The format is biochemical. An excerpt: (§3) We first studied the stability and the selectivity of compound 1, 2 and their biotinylated derivatives in a lysate of purified human neutrophils. […] Further, PR3 was selectively inactivated in the neutrophil lysate as shown by western blotting using biotinylated inhibitors.

Data set [5] deals with T1, PR3K99L. In words: Residual activity of recombinant PR3 mutant in presence of increasing amounts of compound. Format: biochemical. Particulars: Lys99 replaced by Leu in S2 subsite. On the procedure:
as §1
(§4) Phosphonate inhibitors and their biotinylated and fluorescent derivatives were synthesized, purified and controlled by mass spectrometry as reported. Their purity was checked by HPLC (data not shown). Purified Ac-Asp-Tyr-Asp-Ala^P(O—C6H4-4-Cl)2 (compound 1) and Ac-Pro-Tyr-Asp-Ala^P(O—C6H4-4-Cl)2 (compound 2) were first assayed for their inhibitory properties by measuring the residual activity of the human neutrophil serine proteases PR3, HNE and CatG in the presence of increasing amounts of each compound. We used for this purpose the FRET substrates that we developed previously for each protease (18). An almost complete inhibition of PR3 (1 nM final) was obtained after a 30 min incubation time with 20 μM of compound 1 (FIG. 1) and 0.3 μM of compound 2 (FIG. 2). Recombinant PR3K99L, […], HNE and CatG were used in the same experimental conditions. […] This emphasizes the importance of the S2 and S4 subsites to discriminate between PR3 and HNE specificities. Significant inhibition of HNE was obtained using about 100 times more Ac-Pro-Tyr-Asp-Ala^P(O—C6H4-4-Cl)2 than required to inhibit PR3. […] We confirmed this observation kinetically by measuring the second order rate constants kobs/l by competition experiments between the PR3 substrate and each inhibitor (17). As expected the second order rate constant kobs/l for compound 2 was about 100 times greater than that for compound 1 (see Table 1).

For data set [6], the target named is T2, PR3I217R. The data set is described as above. Format: biochemical. The method, then:
as §1, §4

Data set [7] has as its target T5, Elastase (Homo sapiens, UniProt P08246).
T5 sequence (P08246 30-267): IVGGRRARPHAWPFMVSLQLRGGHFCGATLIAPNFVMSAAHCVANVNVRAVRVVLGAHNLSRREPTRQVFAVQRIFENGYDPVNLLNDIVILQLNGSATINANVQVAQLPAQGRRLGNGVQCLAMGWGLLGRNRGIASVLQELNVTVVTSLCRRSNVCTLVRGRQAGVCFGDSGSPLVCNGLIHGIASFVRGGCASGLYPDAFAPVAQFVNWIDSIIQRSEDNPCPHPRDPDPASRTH
In words: Protease inhibition assay, second order rate constant kobs/[I] (method of Tian and Tsou). Particulars: n.s where no significant inhibition. Format: biochemical. On the procedure: (§5) The inactivation of proteases by substrate analog inhibitors in the presence of the substrate by competition for the enzyme-binding site, was measured by the method of Tian and Tsou (17). In this system, product formation in the presence of an irreversible inhibitor approaches an asymptote, as described by
(§6) log([P∞]−[P])=log [P∞]−0.43A[Y]t
(§7) where [P∞] is the concentration of product formed at time approaching infinity, [P] is the concentration of product at time t, [Y] is the inhibitor concentration, and A is the apparent inhibition rate constant in the presence of the substrate. A is given by
(§8) where k+0 is the rate constant for association of the inhibitor with the enzyme, K^−1 is the inverted Michaelis constant, and [S] the substrate concentration. The apparent inhibition rate constant A is the slope of a plot of log([P∞]−[P]) against t, to give the second-order rate constant of inhibition k+0

Data set [8] can be described thus: Stability of inhibitors in neutrophil lysate (preincubation before adding substrates). Particulars: one hour preincubation of neutrophil lysate-inhibitor mixture. The format is in vitro ADME, human.
From the text: as §3

For data set [9], the target named is T6, Proteinase 3 (Homo sapiens, UniProt P24158).
T6 sequence (P24158 28-248): T1 sequence (P24158 28-248 K115L limits assumed) with L88K
In words: Protease inhibition assay, second order rate constant kobs/[I] (method of Tian and Tsou). The format is biochemical. On the procedure:
The compounds of the invention are advantageously selective inhibitors of PR3. […] As described under the Examples below (see PR3 inhibition assay), and as is generally known, efficacy of particular inhibitors against a target protease, for example, recombinant human PR3, is determined by combining the target with a substrate (for example Suc-AanV-SBzI), both in the absence of the inhibitor and in the present of different concentrations of such inhibitor to be tested. Typically, the efficacy of irreversible inhibitors are measured in terms of the second order rate constant of inhibition value (11) or kobs/l. Preferred inhibitors of the invention have typically a kobs/I of more than 10 M^−1s^−1, preferably more than 100 M^−1s^−1, and more preferably of more than […].
as §5, §6, §7, §8

Data set [10] concerns the target T4, PR3. Kind of data set: Residual activity of purified protease with FRET substrate in presence of increasing amounts of compound. Particulars: PR3 1 nM final, 30 min incubation. The format is biochemical.
From the text: as §4

Data set [11] concerns the target T7, HNE (Homo sapiens, UniProt P08246).
T7 sequence (P08246 30-267): T5 sequence (P08246 30-267)
The data set is described as above. The format is biochemical. The following applies: HNE 1 nM, same experimental conditions as PR3.
From the text: as §4

Data set [12] addresses T8, CatG (Homo sapiens, UniProt P08311).
T8 sequence (P08311 21-244): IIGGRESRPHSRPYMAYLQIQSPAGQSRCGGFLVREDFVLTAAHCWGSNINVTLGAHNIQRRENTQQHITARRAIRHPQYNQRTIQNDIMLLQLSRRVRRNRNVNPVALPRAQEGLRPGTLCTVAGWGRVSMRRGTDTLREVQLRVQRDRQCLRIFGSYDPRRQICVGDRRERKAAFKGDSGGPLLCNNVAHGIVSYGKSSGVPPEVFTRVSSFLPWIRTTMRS
The description is as above. Format: biochemical. The following applies: CatG 1 nM, same experimental conditions as PR3.
From the text: as §4

Data set [13] has as its target T7, HNE. In words: Inhibition of protease activity in crude lung secretions of patients (IPF, cystic fibrosis). The format is biochemical. Particulars: 30 min incubation, IPF and CF samples.
In data set [14] the target is T4, PR3. The description is as above. Format: biochemical. Particulars: 30 min incubation, IPF and CF samples. The method, then: Crude lung secretions of patients with chronic inflammatory disorders associating significant neutrophil recruitment (IPF, Cystic fibrosis) were used as biological material to assay the efficacy of phosphonate inhibitors. We first measured the rate of cleavage of the PR3 substrate in >3 IPF and >3 CF crude samples before and after incubation with compounds 2 and 4 (×μM final). All crude samples cleaved the PR3 substrate in the absence of inhibitor and the cleavage always occurred at the expected bond, i.e. the cleavage bond of PR3, as checked by HPLC. The PR3 concentration was in the 0.1-1 μM range in lung secretions, based on the rate of substrate hydrolysis. […] Further, the rate of PR3 inactivation in a crude biological sample […] that of purified PR3, which means that there is no adverse effect impairing the PR3 inhibition in lung secretions of patients with inflammatory disorders.

The target in data set [15] is T8, CatG. The data set is described as above. The format is biochemical. The following applies: 30 min incubation, IPF and CF samples.

With “ABZ-Gln-Asp-Met-Ala-Val-Val-Gln-Ser-Val-Pro-Gln-EDDnp (Abz-QDMAVVQSVPQ-EDDnp) [FRET substrate with negatively charged residue at P4]”, in data set [1], the “cleavage by PR3K99L” value is “completely resists cleavage”. Also, the “factor of increase of kcat/Km versus original substrate, PR3I217R” value in data set [2] came out at 6 times. Moreover, the “factor of decrease of kcat/Km versus original substrate, wtPR3” value in data set [3] is reported as 3.

In the case of “Ac-Asp-Tyr-Asp-Ala^P(O—C6H4-4-Cl)2 (Ac-DYD[AlaP]; not fully specified (C-terminus); printed as Ac-Asp-Tyr-Asp-Ala^P(O—C6H4-4-Cl)2; reading uncertain; also: C-terminal Ala as phosphonate analogue (Ala^P)) [Compound 1]”, the “PR3 activity in neutrophil lysate” value in [4] is given as “totally inactivated”. In addition, the “sensitivity of PR3K99L to inhibition compared with wt PR3” value in data set [5] was “far less sensitive to inhibition”. Moreover, the “inhibition of the Ile217 to Arg217 PR3 mutant compared with PR3K99L” value in data set [6] is reported as “more efficient toward this mutant”. Further, the “Elastase kobs/[I]” value in data set [7] is given as “n.s”. Also, in [8], the “inhibition potential after preincubation in neutrophil lysate” value was “No loss of the inhibition potential”. The “Proteinase 3 kobs/[I]” value in data set [9] is 1.9 ± 0.3 M⁻¹ s⁻¹. Also, in [10], the “concentration giving almost complete inhibition of PR3” value worked out at 20 µM. In addition, the “inhibition of HNE” value in data set [11] is reported as “no significant inhibition”. Also, in data set [12], the “inhibition of CatG” value is “no significant inhibition”.

“Biotin-Pro-Tyr-Asp-Ala^P(O—C6H4-4-Cl)2 [Compound 4]”: in [7], the “Elastase kobs/[I]” value is given as “n.s”. Moreover, the “HNE activity in crude lung secretions” value in data set [13] is reported as “remained unchanged”. In data set [14], the “hydrolysis of PR3 substrate in crude lung secretions” value is reported as “total inhibition”. The “Proteinase 3 kobs/[I]” value in data set [9] came to 4168 ± 553 M⁻¹ s⁻¹. Besides, the “kobs/I range” value in [9] (PR3) was ~10^3 M^−1s^−1. In [15], the “CatG activity in crude lung secretions” value was “remained unchanged”.
